# Data: patent US9624471B2, “Methods for maturing cardiomyocytes and uses thereof” (UNIVERSITY OF WASHINGTON THROUGH ITS CENTER FOR …, priority 2013, dated 2017)
# B1: Lin28a: Lin28a over-expressed in RUES2-CMs; LIN28 is the negative regulator of let-7 processing (protein, UniProt Q9H9Z2 2-209, looked up)
# Protein lin-28 homolog A: GSVSNQQFAGGCAKAAEEAPEEAPEDAARAADEPQLLHGAGICKWFNVRMGFGFLSMTARAGVALDPPVDVFVHQSKLHMEGFRSLKEGEAVEFTFKKSAKGLESIRVTGPGGVFCIGSERRPKGKSMQKRRSKGDRCYNCGGLDHHAKECKLPPQPKKCHFCQSISHMVASCPLKAQQGPSAQGKPTYFREEEEEIHSPTLLPEAQN
# B2: let-7g-E: modified hsa-let-7g with mutated GGAG LIN28 binding motif, SEQ ID NO: 12 (also SEQ ID NO: 16) (nucleic acid, listed as Homo sapiens)
# chain: AGGCUGAGGUAGUAGUUUGUACAGUUUGAGGGUCUAUGAUACCACCCGGUACAUCAGAUAACUGUACAGGCCACUGCCUUGCCA
# modifications: listed as RNA, chemistry not fully specified
# Key:
# [1] = test system: RUES2-CMs; assay: Immunocytochemistry (α-actinin staining) and morphological analysis of lentivirally transduced cardiomyocytes; format: cell-based, human; details: Lin28a OE CMs compared to EV control
# Experimental: Undifferentiated human embryonic stem cell (hESCs) lines H7 (NIHhESCC-10-0061) and RUES2 (NIHhESC-09-0013) were expanded using mouse embryonic fibroblast-conditioned medium with 5 ng/ml basic fibroblast growth factor. H7-CMs were derived using previously reported protocols^1-3. RUES2-CMs were used for all functional analyses and these were derived using a cardiac progenitor cell differentiation protocol^4 derived from previously reported monolayer directed differentiation methods^1, 5, 6. In brief, this involves the induction of a monolayer of hESCs with activin A and bone morphogenetic protein-4 (BMP4) under serum- and insulin-free conditions. During the early stages of differentiation, the cells were also exposed to the Wnt agonist CHIR 99021 followed by the Wnt antagonist Xav939. From 7 days of in vitro differentiation, the cells were fed every alternate day with serum-free RPMI-B27 plus insulin media. After 20 days of in vitro differentiation, the cells were trypsinized and replated. Only those cell preparations that had at least 70% cardiac troponin T-positive CMs (as observed by flow cytometry) were used for further experiments. For experiments where the H7-CMs were cultured for around a year, the cells were replated after the 3rd and 11th month from day 0. At the 11th month, FACS analysis for cTnT was conducted and the CMs were split into three parts and were cultured as three independent replicates for another 1.5 months after which they were harvested for RNA extraction. IMR90iPSC-CMs cultured for 1 yr were replated at day 20 and split every 2 months for 12 months before harvesting for RNA extraction. To generate engineered cardiac tissue, the inventors used the procedure reported by Tulloch et al.^2 In brief, day 20 CMs are suspended in the collagen gel at 10,000/μl, and rod-shaped constructs of 25 μl (1 mm radius×8 mm length) were generated by casting in a preformed mold and warming to 37° C. The ends of the mold contain Velcro-like micro-fiber loops, and these become impregnated with gel+cell mixture. These tabs allow the constructs to be maintained under static tension, which facilitates alignment and differentiation of the CMs. The constructs were maintained in the serum-free RPMI-B27 plus glutamine media up to 2 weeks. For let-7 overexpression analysis, the CMs were transduced with the virus carrying the pLKO-let-7 or empty vector control pLKO plasmid at day 12 of the directed differentiation protocol. After overnight transduction the virus was removed, cells were rinsed with PBS and new media added. The samples were analyzed at day 30 from the initiation of differentiation.
# All morphological analyses were carried out using at least 50 cells. Cells replated in chamber slides were fixed in 4% paraformaldehyde for 15 minutes followed by PBS wash. The fixed cells were blocked for an hour with 1.5% normal goat serum and incubated O/N with mouse alpha actinin (sigma) primary antibody. The primary antibody was rinsed with PBS and incubated with secondary antibody (Alexa fluor 488 [Goat anti mouse]) for an hour followed by nuclear staining using DAPI. For cell area and perimeter measurements, images were acquired and processed using ZEISS™ AXIO fluorescent microscope and AXIOVISION™ software. For sarcomere length, images were acquired and processed using LEICA™ TCS-SPE confocal microscope and LEICA™ software. These confocal images were used to select 1-2 myofibrils per cell with at least ten continuous, well-recognized alpha-actinin bands and divided the length value by the number of sarcomeres. The images were further analyzed using IMAGE J™ software.
# For lenti-let-7 OE constructs, Pri-miR-let-7i and pri-miR-let-7g sequence was amplified from H7 genomic DNA using forward primer for let-7i-TCCGCGTGGTCCCGT; reverse primer for let-7i-ATTGTCCTCCGCGGCGC and forward primer for let-7g-AGAGTTCCTCCAGCGCTCC; reverse primer for let-7g-CCCCACTTGGCAGCTGGC, resulting in 153 bp and 154 bp products, respectively. […]
# [2] = test system: RUES2-CMs; assay: mRNA and miRNA qPCR analysis in transduced RUES2-CMs; format: cell-based, human; details: Lin28a OE hESC-CMs
# Experimental: Undifferentiated human embryonic stem cell (hESCs) lines H7 (NIHhESCC-10-0061) and RUES2 (NIHhESC-09-0013) were expanded using mouse embryonic fibroblast-conditioned medium with 5 ng/ml basic fibroblast growth factor. H7-CMs were derived using previously reported protocols^1-3. RUES2-CMs were used for all functional analyses and these were derived using a cardiac progenitor cell differentiation protocol^4 derived from previously reported monolayer directed differentiation methods^1, 5, 6. In brief, this involves the induction of a monolayer of hESCs with activin A and bone morphogenetic protein-4 (BMP4) under serum- and insulin-free conditions. During the early stages of differentiation, the cells were also exposed to the Wnt agonist CHIR 99021 followed by the Wnt antagonist Xav939. From 7 days of in vitro differentiation, the cells were fed every alternate day with serum-free RPMI-B27 plus insulin media. After 20 days of in vitro differentiation, the cells were trypsinized and replated. Only those cell preparations that had at least 70% cardiac troponin T-positive CMs (as observed by flow cytometry) were used for further experiments. For experiments where the H7-CMs were cultured for around a year, the cells were replated after the 3rd and 11th month from day 0. […] The samples were analyzed at day 30 from the initiation of differentiation. […]
# [3] = test system: HECT293FT cells; assay: Lipofectamine transient transfection of plko-let-7g and plko-let-7g-E plasmids, mature let-7g and target expression after 24 hrs; format: cell-based; details: 24 hrs after transfection
# Experimental: FIGS. 20A-20B Modified let-7g (let-7g-E) is more efficient in generating mature let-7g in HECT293FT cells. Let-7g and a modified version of let-7g (plko-let-7g-E) were induced in hect 293 FT cells by introducing plko-let-7g and plko-let-7g-E plasmids with lipofectamine transient transfection assay. 24 hrs after transfection, cells were tested for mature let-7g expression. […] (FIG. 20B) Targets of let-7 are repressed when we over-express let-7g-E similar to that seen during over-expression of let-7g.
Molecule,cell area [1],circularity index [1],sarcomere length [1],cell perimeter ([1]; N=50 cells per condition),let-7i and let-7g expression [2],Targets of let-7 expression [3],mature let-7g expression ([3]; compared to EV and native let-7g)
B1,significant decrease,increase,significant decrease,significant decrease,down-regulated,–,–
B2,–,–,–,–,–,repressed,much higher expression
